± gives the uncertainty stated by the source.
Assay: self-splicing fitness, log relative to wild type (ln ratio); higher = more splicing; Tetrahymena group I intron in knt gene, E. coli kanamycin selection, DiMSum; sequences stand for … in CUCUCU…GGAGGGAAAAGUUAUCAGGCAUGCACCUGGUAGCUAGUCUUUAAACCAAUAGAUUGCAUCGGUUUAAAAGGCAAGACCGUCAAAUUGCGGGAAAGGGGUCAACAGCCGUUCAGUACCAAGUCUCAGGGGAAACUUUGAGAUGGCCUUGCAAAGGGUAUGGUAAUAAGCUGACGGACAUGGUCCUAACCACGCAGCCAAGUCCUAAGUCAACAGAUCUUCUGUUGAUAUGGAUGCAGUUCACAGACUAAAUGUCGGUCGGGGAAGAUGUAUUCUUCUCAUAAGAUAUAGUCGGACCUCUCCUUAAUGGGAGCUAGCGGAUGAAGUGAUGCAACACUGGAGCCGCUGGGAACUAAUUUGUAUGCGAAAGUAUAUUGAUUAGUUUUGGAGUACUCGUGGUCG
In short: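 Fitness was computed with DiMSum as the error-weighted combination of replicate fold changes, kanamycin versus none, each normalised to wild type. The library randomised all eight intron nucleotides of the P1ex region, with the intron placed in the knt kanamycin-resistance gene on pET-22b(+) in E. coli BL21(DE3). Six replicate transformations were grown overnight at 37°C or 30°C on LB agar with or without 25 μg/mL kanamycin, plus 100 μg/mL carbenicillin, 50 μM IPTG and 0.2% rhamnose. Pooled colonies were amplicon-sequenced on an Illumina HiSeq 2500.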

Sequence	self-splicing fitness (ln) (30 °C)	self-splicing fitness (ln) (37 °C)
UUGUAGCAAUAUUACGUAAU	-2.9 ± 0.22	-2.37 ± 0.24
UUGUAGCAAUAUUACGUAUG	-1.99 ± 0.14	-1.42 ± 0.16
UUGUAGCAAUAUUACGUCGU	-3.78 ± 0.26	-2.44 ± 0.2
UUGUAGCAAUAUUACGUUAU	-2.7 ± 0.41	-2.1 ± 0.25
UUGUAGCAAUAUUACGUUCA	-1.07 ± 0.11	-0.717 ± 0.13
UUGUAGCAAUAUUACGUUGU	-3.77 ± 0.27	-2.81 ± 0.24
UUGUAGCAAUAUUACGUUUG	-1.83 ± 0.15	-1.87 ± 0.2
UUUAAGCAAUAUUACGAAAC	–	-1.01 ± 0.39
UUUAAGCAAUAUUACGAACA	-0.6 ± 0.17	-0.353 ± 0.19
UUUAAGCAAUAUUACGAAUG	-1.54 ± 0.13	-0.41 ± 0.15
UUUAAGCAAUAUUACGAAUU	-1.6 ± 0.17	-1.58 ± 0.2
UUUAAGCAAUAUUACGACUC	-0.391 ± 0.24	-0.881 ± 0.4
UUUAAGCAAUAUUACGAGUA	-1.72 ± 0.19	-1.06 ± 0.19
UUUAAGCAAUAUUACGAUCG	-0.416 ± 0.12	0.237 ± 0.17
UUUAAGCAAUAUUACGCAUA	-3.17 ± 0.2	-0.829 ± 0.14
UUUAAGCAAUAUUACGCGUA	-1.4 ± 0.14	-0.828 ± 0.13
UUUAAGCAAUAUUACGCUUG	-3.29 ± 0.23	-1.4 ± 0.26
UUUAAGCAAUAUUACGGCGU	-1.29 ± 0.27	-0.169 ± 0.34
UUUAAGCAAUAUUACGGGGC	-2.77 ± 0.3	-3.55 ± 0.3
UUUAAGCAAUAUUACGGGUU	-2.83 ± 0.3	-1.67 ± 0.22
UUUAAGCAAUAUUACGGUAC	-2.22 ± 0.28	–
UUUAAGCAAUAUUACGGUAU	-3.05 ± 0.17	-0.94 ± 0.17

Sequence	self-splicing fitness (ln) (30 °C)	self-splicing fitness (ln) (37 °C)
UUUAAGCAAUAUUACGUAAG	-0.0425 ± 0.074	0.296 ± 0.094
UUUAAGCAAUAUUACGUACG	-0.346 ± 0.16	0.322 ± 0.17
UUUAAGCAAUAUUACGUAUC	–	-1.84 ± 0.33
UUUAAGCAAUAUUACGUCUG	-0.513 ± 0.1	-0.114 ± 0.12
UUUAAGCAAUAUUACGUGGA	-1.99 ± 0.18	-1.56 ± 0.2
UUUAAGCAAUAUUACGUUCG	-0.639 ± 0.093	-0.169 ± 0.12
UUUCAGCAAUAUUACGACAU	-1.41 ± 0.015	-0.565 ± 0.033
UUUCAGCAAUAUUACGACCG	0.263 ± 0.18	-0.377 ± 0.29
UUUCAGCAAUAUUACGAGGU	-3.53 ± 0.2	-2.78 ± 0.24
UUUCAGCAAUAUUACGAUCG	-0.997 ± 0.099	-0.152 ± 0.14
UUUCAGCAAUAUUACGAUUG	-0.724 ± 0.087	-0.057 ± 0.11
UUUCAGCAAUAUUACGCACU	-0.429 ± 0.077	-0.09 ± 0.092
UUUCAGCAAUAUUACGCGAU	-3.39 ± 0.15	-2.47 ± 0.16
UUUCAGCAAUAUUACGCGCU	-3.54 ± 0.5	–
UUUCAGCAAUAUUACGCGGC	-2.67 ± 0.25	-1.74 ± 0.27
UUUCAGCAAUAUUACGCGGG	-2.27 ± 0.12	-2.35 ± 0.15
UUUCAGCAAUAUUACGGAAG	-1.69 ± 0.12	-0.536 ± 0.19
UUUCAGCAAUAUUACGGAUC	-1.14 ± 0.07	-0.289 ± 0.089
UUUCAGCAAUAUUACGGGAG	-0.794 ± 0.07	-0.0774 ± 0.1
UUUCAGCAAUAUUACGGGGA	-2.43 ± 0.24	-0.33 ± 0.16
UUUCAGCAAUAUUACGGGUC	-3.24 ± 0.26	-2.14 ± 0.2
UUUCAGCAAUAUUACGGUAC	-1.9 ± 0.41	-2.1 ± 0.26

Sequence	self-splicing fitness (ln) (30 °C)	self-splicing fitness (ln) (37 °C)
UUUCAGCAAUAUUACGGUGA	-0.66 ± 0.056	-0.395 ± 0.064
UUUCAGCAAUAUUACGUACG	-0.905 ± 0.12	-0.18 ± 0.11
UUUCAGCAAUAUUACGUCUC	-3.39 ± 0.4	-0.735 ± 0.17
UUUCAGCAAUAUUACGUGGC	-2.68 ± 0.15	-2.94 ± 0.22
UUUCAGCAAUAUUACGUGGG	-2.4 ± 0.14	-1.95 ± 0.12
UUUCAGCAAUAUUACGUUAG	-1.31 ± 0.11	-0.474 ± 0.12
UUUGAGCAAUAUUACGAACU	-3.36 ± 0.28	-2.77 ± 0.31
UUUGAGCAAUAUUACGACCG	–	-1.19 ± 0.4
UUUGAGCAAUAUUACGAUAA	-1.25 ± 0.087	-0.386 ± 0.095
UUUGAGCAAUAUUACGAUUG	-3.75 ± 0.47	-2.41 ± 0.31
UUUGAGCAAUAUUACGCAAC	–	-1.71 ± 0.26
UUUGAGCAAUAUUACGCGAU	–	-2.19 ± 0.4
UUUGAGCAAUAUUACGCGGU	-2.67 ± 0.28	-2.37 ± 0.35
UUUGAGCAAUAUUACGCGUU	-2.4 ± 0.18	-2.86 ± 0.42
UUUGAGCAAUAUUACGCUGG	-2.04 ± 0.11	-2.01 ± 0.14
UUUGAGCAAUAUUACGCUUG	-3.52 ± 0.37	-1.63 ± 0.4
UUUGAGCAAUAUUACGGCCG	-2.02 ± 0.35	–
UUUGAGCAAUAUUACGGUAA	-2.38 ± 0.29	-1.94 ± 0.25
UUUGAGCAAUAUUACGGUUG	-1.79 ± 0.2	-0.702 ± 0.36
UUUGAGCAAUAUUACGUAAC	-2.01 ± 0.5	–
UUUGAGCAAUAUUACGUGUC	-4.05 ± 0.42	-2.79 ± 0.27
UUUGAGCAAUAUUACGUGUU	-2.61 ± 0.32	-3.3 ± 0.33

Sequence	self-splicing fitness (ln) (30 °C)	self-splicing fitness (ln) (37 °C)
UUUGAGCAAUAUUACGUUUC	–	-2.62 ± 0.35
UUUUAGCAAUAUUACGAAGU	-3.02 ± 0.35	-1.65 ± 0.46
UUUUAGCAAUAUUACGAGAA	-0.897 ± 0.48	-0.946 ± 0.19
UUUUAGCAAUAUUACGAGCG	-1.02 ± 0.11	-1.33 ± 0.1
UUUUAGCAAUAUUACGAUGC	–	-2.46 ± 0.38
UUUUAGCAAUAUUACGCAGA	-0.713 ± 0.21	-0.506 ± 0.16
UUUUAGCAAUAUUACGCGAG	-1.15 ± 0.077	-0.226 ± 0.097
UUUUAGCAAUAUUACGCGAU	-3.02 ± 0.34	-1.97 ± 0.27
UUUUAGCAAUAUUACGGAGA	-1.93 ± 0.35	-1.62 ± 0.27
UUUUAGCAAUAUUACGGAGC	-2.24 ± 0.38	-2.37 ± 0.49
UUUUAGCAAUAUUACGGAGG	-2.86 ± 0.27	-1.48 ± 0.22
UUUUAGCAAUAUUACGGAGU	-2.29 ± 0.33	-1.95 ± 0.28
UUUUAGCAAUAUUACGGAUU	-1.8 ± 0.1	-1.36 ± 0.15
UUUUAGCAAUAUUACGGCAA	0.145 ± 0.12	-0.398 ± 0.15
UUUUAGCAAUAUUACGGCCU	-1.53 ± 0.26	-1.87 ± 0.33
UUUUAGCAAUAUUACGGCGU	-1.89 ± 0.21	-0.915 ± 0.45
UUUUAGCAAUAUUACGGGUA	-1.75 ± 0.3	-0.417 ± 0.28
UUUUAGCAAUAUUACGGGUC	-3.73 ± 0.4	-2.96 ± 0.38
UUUUAGCAAUAUUACGGUCC	-2.8 ± 0.5	-1.73 ± 0.43
UUUUAGCAAUAUUACGUAUC	–	-2.56 ± 0.33
UUUUAGCAAUAUUACGUCAU	-3 ± 0.28	-1.47 ± 0.29
UUUUAGCAAUAUUACGUCUA	-0.819 ± 0.23	-0.292 ± 0.2
